Measurements: the supplement of paper PMC9170038

Tested on: MS2 coat protein
Assay: apparent KD of MS2 coat protein; designed switch direction (-1 OFF switch, 1 ON switch): -1; higher = weaker reporter binding
Summary of the method: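 Each step of the titration lasted 0.8–1.5 h at the lowest concentration and 10–20 min at the highest. The protein, SNAP-549-labelled MS2 coat protein, went from 0.7 or 1.5 nM doubling to 3 µM over RNA switches transcribed on Illumina chips by stalled E. coli RNA polymerase. Normalised cluster fluorescence was curve-fitted, and the per-design median over clusters is given as apparent KD.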

[1] = Eterna round: R95, input ligand: FMN 200 uM
[2] = Eterna round: R95, input ligand: microRNA oligo, concentration not stated
[3] = Eterna round: R95, input ligand: none
[4] = input ligand: microRNA oligo, concentration not stated

Sequence: CUAGAUCUUCGGAUCUAGUACAUGAGGAUCACCCAUGUGACGAGUUGAUCCUCAUACAAGCUUUUUGCUCGUCUUAU [Sensor v3 - Turn-off variant 1 - 16] (puzzle: Sensor v3, turn-off variant 1)
- apparent KD of MS2 coat protein [1]: 19.3 nM
- apparent KD of MS2 coat protein [2]: 21.3 nM
- apparent KD of MS2 coat protein [3]: 11.9 nM

Sequence: CCUCAUAUUUAGGAUAUGAUUGGUAAUUAUUAGUUAGAAGGAGGUACAUGAGGAUCACCCAUGUAAAAUUUUUU [-13.7, -10.8 kcal, 32% A] (Eterna round: R97, puzzle: Exclusion 6)
- apparent KD of MS2 coat protein (input ligand: FMN 200 uM): 19.7 nM
- apparent KD of MS2 coat protein (input ligand: none): 19.6 nM

Sequence: AGUACUAACACGACAGUGUUAGUACAAUAAGCUUGUGAAACAUGAGGAUCACCCAUGUCCUCAUAAGCUCGUCUUAU [salish99_TOv2_r3_031] (puzzle: Sensor v3, turn-off variant 2)
- apparent KD of MS2 coat protein [1]: 18.8 nM
- apparent KD of MS2 coat protein [2]: 867 nM
- apparent KD of MS2 coat protein [3]: 15.2 nM

Sequence: UUUUUCAGGCCAGAUCCUCACAUGAGGAUCACCCAUGUGCUCGUCUGUUUUCGCUCUGUCUUUUUUUUGGUGGUGCU [Level Boss var2-20] (puzzle: Sensor v3, turn-off variant 1)
- apparent KD of MS2 coat protein [1]: 177 nM
- apparent KD of MS2 coat protein [2]: 26.7 nM
- apparent KD of MS2 coat protein [3]: 178 nM

Sequence: GGCCGUAAUAAGGAUAUCACUAGCGAUAGCUAGUGAGAAGGUAUUACAUGAGGAUCACCCAUGUGAUCAGGCCA [E6/3-B3] (Eterna round: R97, puzzle: Exclusion 6)
- apparent KD of MS2 coat protein (input ligand: FMN 200 uM): 1180 nM
- apparent KD of MS2 coat protein (input ligand: none): 176 nM

Sequence: ACUAGAUGAGGAUAUGCAUAUUUUCGUGUUCUUCUAGGUUAACAUGAGGAUCACCCAUGUAGAAGGCGUCUAUU [Exclusion 2 - 23] (puzzle: Exclusion 2)
- apparent KD of MS2 coat protein [2]: 18.6 nM

Sequence: CGGGCCGGCCUUCCGGCCGGCCCGACAUGAGGAUCACCCAUGUAGGAUAUCCCGGCUGCCGGCCGGGAGAAGGGCGUGCGCUUU [-47.6, -45.1 kcal, 14% A] (Eterna round: R96, puzzle: Exclusion NG 3)
- apparent KD of MS2 coat protein (input ligand: FMN 200 uM): 36.5 nM
- apparent KD of MS2 coat protein [4]: 20.8 nM
- apparent KD of MS2 coat protein (input ligand: none): 36.5 nM

Sequence: GCGGAGAGAGAAGGAUAUUGAAAUGCUUCUACAUGAGGAUCACCCAUGUUCGGCAGACAUGGGACCAAGAAGGUCUAUGUCGCG [Eternabot solution 27] (Eterna round: R96, puzzle: Exclusion NG 2)
- apparent KD of MS2 coat protein (input ligand: FMN 200 uM): 70.2 nM
- apparent KD of MS2 coat protein [4]: 40.4 nM
- apparent KD of MS2 coat protein (input ligand: none): 55.4 nM

Sequence: ACGACCUGAGGAUAUACAUGAGGAUCACCCAUGUAUGCAACAGCCGGGAAAUCCCGAUGUAGAAGGCAGGAAAA [Eternabot (Original) Solution 26] (Eterna round: R97, puzzle: Exclusion 3)
- apparent KD of MS2 coat protein (input ligand: FMN 200 uM): 252 nM
- apparent KD of MS2 coat protein (input ligand: none): 32.2 nM

Sequence: GCCAGAGCAGGAUAUUCAAUAAUUCACAUGAGGAUCACCCAUGUCCAGCGAAAGCUGGAGGGAGAAGGGCUCUGGC [Fiskers Ex 5 - 2] (puzzle: Exclusion 5)
- apparent KD of MS2 coat protein [1]: 17.5 nM
- apparent KD of MS2 coat protein [2]: 33.4 nM
- apparent KD of MS2 coat protein [3]: 44.3 nM

Sequence: GGAAGUAGAAACCGAUCCUACAUGAGGAUCACCCAUGUAGCAAGACGUGCACGCGAAGCUCGUCAGACUACCAGAAU [salish99_TOv1_r3_010] (puzzle: Sensor v3, turn-off variant 1)
- apparent KD of MS2 coat protein [1]: 341 nM
- apparent KD of MS2 coat protein [2]: 268 nM
- apparent KD of MS2 coat protein [3]: 286 nM

Sequence: ACAUUGAAUGUGAGGAUAUCGAUGUGAUGGGUUGUCGAGAAGGCACAUGAGGAUCACCCAUGUGGGAAACAGCA [JR_BMEx4_Sub031] (Eterna round: R97, puzzle: Brourd's mod of Exclusion 4)
- apparent KD of MS2 coat protein (input ligand: FMN 200 uM): 127 nM
- apparent KD of MS2 coat protein (input ligand: none): 44.6 nM

Sequence: GGUACUAACAGCUGACUGUUAGUACUGUAGGUUUGUGUUACAUGAGGAUCACCCAUGUCCUCAUAGGCUCGUCUUGU [JL-sv3-2.24 mat747 mod] (puzzle: Sensor v3, turn-off variant 2)
- apparent KD of MS2 coat protein [1]: 281 nM
- apparent KD of MS2 coat protein [2]: 91.5 nM
- apparent KD of MS2 coat protein [3]: 739 nM

Sequence: UGUACUAACACGAAAGUGUUAGUACAAUAAGCUUGUGUUACAUGAGGAUCACCCAUGUCCUCAUAAGCUCGUCUUAU [Mat - Sensor v3 - Turn-off var 2 - D51] (puzzle: Sensor v3, turn-off variant 2)
- apparent KD of MS2 coat protein [1]: 88.2 nM
- apparent KD of MS2 coat protein [2]: 52.3 nM
- apparent KD of MS2 coat protein [3]: 99.2 nM

Sequence: CAUCACUGCUAGGAUAUCGAGUCGGAGAAUACUUGAGAAGGAGCUACAUGAGGAUCACCCAUGUCCUCCGCGAU [Eternabot (L2) Solution 72] (Eterna round: R97, puzzle: Exclusion 6)
- apparent KD of MS2 coat protein (input ligand: FMN 200 uM): 47.3 nM
- apparent KD of MS2 coat protein (input ligand: none): 18.8 nM

Sequence: CGCGCCUUUGUCAGGAUAUUCGGACGAGCCCGGCCGGAGAAGGGACUUGAGGAUCACCCAAGUGACGCGAAGAC [Anrearra] (Eterna round: R97, puzzle: Brourd's mod of Exclusion 4)
- apparent KD of MS2 coat protein (input ligand: FMN 200 uM): 35.1 nM
- apparent KD of MS2 coat protein (input ligand: none): 31.9 nM

Sequence: GGUCUGCGAGGAUAUACAUGAGGAUCACCCAUGUGCGAGAAACUAGUGAGGUCGGUUGGUAGAAGGCGCGGACG [Mat - Exclusion 3 - Mod of JL D89] (puzzle: Exclusion 3)
- apparent KD of MS2 coat protein [1]: 13.9 nM
- apparent KD of MS2 coat protein [2]: 14 nM
- apparent KD of MS2 coat protein [3]: 32.8 nM

Sequence: AAAUAGCUAGAGGAUAUCGGAUAGGAUUUAUUACGAGAAGGUUAGACAUGAGGAUCACCCAUGUUCUGUUGGGA [EX6 #21] (Eterna round: R97, puzzle: Exclusion 6)
- apparent KD of MS2 coat protein (input ligand: FMN 200 uM): 86.9 nM
- apparent KD of MS2 coat protein (input ligand: none): 34.6 nM

Sequence: CAAGUGUUAGGAUAUACCAGUUAAAUGCAGCUGCCGUCGGAGUAGAAGGGACAUGAGGAUCACCCAUGUCGGGA [Eternabot (L1) Solution 28] (Eterna round: R97, puzzle: Exclusion 4)
- apparent KD of MS2 coat protein (input ligand: FMN 200 uM): 46.1 nM
- apparent KD of MS2 coat protein (input ligand: none): 35.1 nM

Sequence: GAUCGUUUAGAGGAUAUCGUGCUAAACAUUACAUGAGAAGGCUAGACAUGAGGAUCACCCAUGUAUGCUCGUGA [Exclusion 6 - 8:b] (puzzle: Exclusion 6)
- apparent KD of MS2 coat protein [2]: 14.8 nM

Sequence: CCGUAACAUGAGGAUCACCCAUGUCAGGAUAUUCCAAAAUCGUCGAAAGACGAUAACAGAAGAAGGGACAGUGG [Fiskxlusion 5 - Jieux - Exclusion 1] (Eterna round: R97, puzzle: Exclusion 1)
- apparent KD of MS2 coat protein (input ligand: FMN 200 uM): 104 nM
- apparent KD of MS2 coat protein (input ligand: none): 111 nM

Sequence: GCUAGAGCAGGAUAUUCAAAACCUCACAUGAGGAUCACCCAUGUGGCCGAAAGGCCGGGAGGAGAAGGGCUCUAGC [Mat - Exclusion 5 - Eli mod - D84] (puzzle: Exclusion 5)
- apparent KD of MS2 coat protein [1]: 41.6 nM
- apparent KD of MS2 coat protein [2]: 15.1 nM
- apparent KD of MS2 coat protein [3]: 17.2 nM

Sequence: CUCUUGUCAGGAUAUCAACGCCGCCCACAUGGGCAGCGAAAUGAGAAGGGACAUGAGGAUCACCCAUGUUAAAA [Retema] (puzzle: Exclusion 4)
- apparent KD of MS2 coat protein [1]: 30.4 nM
- apparent KD of MS2 coat protein [2]: 161 nM
- apparent KD of MS2 coat protein [3]: 218 nM

Sequence: CCCGGGUCAGGAUAUCACUUAAGCGCAGUGAGCGUCUGAGAUGAGAAGGGACAUGAGGAUCACCCAUGUGUGGC [Eternabot (L2) Solution 66] (Eterna round: R97, puzzle: Exclusion 4)
- apparent KD of MS2 coat protein (input ligand: FMN 200 uM): 456 nM
- apparent KD of MS2 coat protein (input ligand: none): 93.7 nM

Sequence: GGCAUCGGAGGAUAUACUUAUGGUGAUGCCCGAAGCUUUCUACUUGAGGAUCACCCAAGUAGAAGGCCGAUGCC [jl-ex2.4.79 ViennaUCT mod] (Eterna round: R97, puzzle: Exclusion 2)
- apparent KD of MS2 coat protein (input ligand: FMN 200 uM): 11.2 nM
- apparent KD of MS2 coat protein (input ligand: none): 12.7 nM

Sequence: CUUUAGCAGGUAGGAUAUACGAAGUGUCGGCGAGUAGAAGGACCUGCGAUCCACUUGAGGAUCACCCAAGUUCGCAGGAGAACA [Mutated MS2 EX1.10] (Eterna round: R96, puzzle: Exclusion NG 1)
- apparent KD of MS2 coat protein (input ligand: FMN 200 uM): 103 nM
- apparent KD of MS2 coat protein [4]: 35.6 nM
- apparent KD of MS2 coat protein (input ligand: none): 50.8 nM

Sequence: UUAGUUUUGCAAGGAUAUGUUUAUUUAUAGUUGCCUCUUACAUGAGGAUCACCCAUGUUUUACUUACAGAAGGUGCAAUGAUUU [JR_ExcNG2_Sub034] (Eterna round: R96, puzzle: Exclusion NG 2)
- apparent KD of MS2 coat protein [4]: 138 nM

Sequence: UUUAAUUUUUUUUUUUUACAAGCUUUUUGCUCGUCUUAUACAUGAGGAUCACCCAUGUAGGUGAGGGAUAAAUUAUC [JMF 43] (puzzle: Sensor v3, turn-off variant 2)
- apparent KD of MS2 coat protein [1]: 29.1 nM
- apparent KD of MS2 coat protein [2]: 150 nM
- apparent KD of MS2 coat protein [3]: 27.3 nM

Sequence: AGUUGGGAAGGAUAUACAUGAGGAUCACCCAUGUGAAAUUAUAGUGAGGAAAUGAAAAGUAGAAGGUCCUGACA [Mod of Mat 4 - Jieux - Exclusion 3] (Eterna round: R97, puzzle: Exclusion 3)
- apparent KD of MS2 coat protein (input ligand: FMN 200 uM): 147 nM
- apparent KD of MS2 coat protein (input ligand: none): 35.8 nM

Sequence: AGCUGUGGCCGAGGAUAUCUAUCCAAAAUAACCGAAAUAUAAUCGGACAUGAGGAUCACCCAUGUAGAGAAGGCGGUCUCAGCA [Eli eng2 - 087] (Eterna round: R96, puzzle: Exclusion NG 2)
- apparent KD of MS2 coat protein [4]: 18.6 nM

Sequence: UAAGGGUGCGUAGGAUAUCGCGGCCGAAUAAAGCGAGAAGGACGCCCUAAUGGGUCGUCCAACAUGAGGAUCACCCAUGUAUAC [Uslaarus] (Eterna round: R96, puzzle: Exclusion NG 1)
- apparent KD of MS2 coat protein (input ligand: FMN 200 uM): 55.4 nM
- apparent KD of MS2 coat protein [4]: 31.2 nM
- apparent KD of MS2 coat protein (input ligand: none): 41.5 nM

Sequence: CGCUGGACAGGAUAUGUUCUUGGGCACUUGAGGAUCACCCAAGUCAUCGGGACAUCAGGCACAGAAGGGUUGUUGG [salish99_ex5_r4_028] (Eterna round: R97, puzzle: Exclusion 5)
- apparent KD of MS2 coat protein (input ligand: FMN 200 uM): 25.5 nM
- apparent KD of MS2 coat protein (input ligand: none): 27.1 nM

Sequence: ACAUGUAAUGUAGGAUAUUUUACACAUGAGGAUCACCCAUGUGACCAGAGGCUUUACUAUGAGUAAAAGAAGGGUAUGUACAUG [Ex NG2 #60] (Eterna round: R96, puzzle: Exclusion NG 2)
- apparent KD of MS2 coat protein (input ligand: FMN 200 uM): 69.6 nM
- apparent KD of MS2 coat protein [4]: 33.5 nM
- apparent KD of MS2 coat protein (input ligand: none): 54.2 nM
